Publication PMC10325916, “DNA strand asymmetry generated by CpG hemimethylation has opposing effects on CTCF binding”
Several values for one entry are separate records, joined by “and”; a condition that tells them apart may be missing. Equal values may be shown once.

T1: CTCF ZF1-11 (human, UniProt P49711 266-577)
T1 sequence: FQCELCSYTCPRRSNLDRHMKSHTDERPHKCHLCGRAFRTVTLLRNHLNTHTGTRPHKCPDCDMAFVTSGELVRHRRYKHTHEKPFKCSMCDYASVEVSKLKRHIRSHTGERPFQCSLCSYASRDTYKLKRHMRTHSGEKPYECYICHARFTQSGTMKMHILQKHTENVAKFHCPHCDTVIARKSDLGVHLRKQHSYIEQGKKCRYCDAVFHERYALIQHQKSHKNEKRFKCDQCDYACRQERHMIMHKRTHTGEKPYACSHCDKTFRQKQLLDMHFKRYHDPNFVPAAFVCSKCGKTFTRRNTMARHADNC

T2: CTCF FL (human, UniProt P49711 1-727)
T2 sequence: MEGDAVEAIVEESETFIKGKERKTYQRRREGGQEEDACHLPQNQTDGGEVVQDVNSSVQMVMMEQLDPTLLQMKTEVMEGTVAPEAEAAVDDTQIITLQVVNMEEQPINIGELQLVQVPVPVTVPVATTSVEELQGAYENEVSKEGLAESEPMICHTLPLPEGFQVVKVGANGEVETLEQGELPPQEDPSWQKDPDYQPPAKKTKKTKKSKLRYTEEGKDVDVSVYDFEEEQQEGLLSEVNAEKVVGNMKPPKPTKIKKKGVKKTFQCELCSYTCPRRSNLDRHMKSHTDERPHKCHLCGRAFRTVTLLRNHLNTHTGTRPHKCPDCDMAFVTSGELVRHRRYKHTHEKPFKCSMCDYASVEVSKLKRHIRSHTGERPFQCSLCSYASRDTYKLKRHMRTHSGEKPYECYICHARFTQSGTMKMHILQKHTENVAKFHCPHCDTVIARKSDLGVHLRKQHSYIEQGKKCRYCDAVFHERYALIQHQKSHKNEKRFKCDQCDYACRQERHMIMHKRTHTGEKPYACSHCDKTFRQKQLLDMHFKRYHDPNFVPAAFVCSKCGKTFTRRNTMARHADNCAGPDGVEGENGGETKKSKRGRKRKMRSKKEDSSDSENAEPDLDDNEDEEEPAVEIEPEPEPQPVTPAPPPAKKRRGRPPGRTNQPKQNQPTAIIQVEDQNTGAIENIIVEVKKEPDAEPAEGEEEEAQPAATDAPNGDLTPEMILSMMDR

B1: Negative control (dsDNA)
DNA 1: AAGACGATTCTGGATTGTA
DNA 2: TACAATCCAGAATCGTCTT
B2: Cen-CTCF motif C12 + opposite C12 5mC (dsDNA)
DNA 1: AGGCCGCCAGAGAGCGCCC
DNA 2: GGGCGCTCTCTGGCGGCCT
modifications: 5mC motif C12 and opposite C12
B3: Cen-CTCF motif C2 + opposite C12 5mC (dsDNA)
DNA 1: AGGCCGCCAGAGAGCGCCC
DNA 2: GGGCGCTCTCTGGCGGCCT
modifications: 5mC motif C2 and opposite C12
B4: Cen-CTCF motif C2 5mC (dsDNA)
DNA 1: AGGCCGCCAGAGAGCGCCC
DNA 2: GGGCGCTCTCTGGCGGCCT
modifications: 5mC motif strand C2
B5: Cen-CTCF motif C2+C12 5mC (dsDNA)
DNA 1: AGGCCGCCAGAGAGCGCCC
DNA 2: GGGCGCTCTCTGGCGGCCT
modifications: 5mC motif strand C2, C12
B6: H19 opposite C2 5mC (dsDNA)
DNA 1: GTTGCCGCGTGGTGGCAG
DNA 2: CTGCCACCACGCGGCAAC
modifications: 5mC opposite strand C2
B7: Cen-CTCF opposite C12 5mC (dsDNA)
DNA 1: AGGCCGCCAGAGAGCGCCC
DNA 2: GGGCGCTCTCTGGCGGCCT
modifications: 5mC opposite strand C12
B8: Cen-CTCF opposite C2+C12 5mC (dsDNA)
DNA 1: AGGCCGCCAGAGAGCGCCC
DNA 2: GGGCGCTCTCTGGCGGCCT
modifications: 5mC opposite strand C2, C12
B9: Telo-CTCF (dsDNA)
DNA 1: TCCCCACCAGGGGGAGCAC
DNA 2: GTGCTCCCCCTGGTGGGGA
B10: H19 motif C2 5mC (dsDNA)
DNA 1: GTTGCCGCGTGGTGGCAG
DNA 2: CTGCCACCACGCGGCAAC
modifications: 5mC motif strand C2
B11: Cen-CTCF motif C2 + opposite C2 5mC (dsDNA)
DNA 1: AGGCCGCCAGAGAGCGCCC
DNA 2: GGGCGCTCTCTGGCGGCCT
modifications: 5mC motif C2 and opposite C2
B12: Cen-CTCF full methylation (dsDNA)
DNA 1: AGGCCGCCAGAGAGCGCCC
DNA 2: GGGCGCTCTCTGGCGGCCT
modifications: 5mC at C2 and C12 CpGs, both strands
B13: Cen-CTCF unmethylated (dsDNA)
DNA 1: AGGCCGCCAGAGAGCGCCC
DNA 2: GGGCGCTCTCTGGCGGCCT
B14: Cen-CTCF motif C12 5mC (dsDNA)
DNA 1: AGGCCGCCAGAGAGCGCCC
DNA 2: GGGCGCTCTCTGGCGGCCT
modifications: 5mC motif strand C12
B15: H19 full methylation (dsDNA)
DNA 1: GTTGCCGCGTGGTGGCAG
DNA 2: CTGCCACCACGCGGCAAC
modifications: 5mC C2 both strands
B16: H19 unmethylated (dsDNA)
DNA 1: GTTGCCGCGTGGTGGCAG
DNA 2: CTGCCACCACGCGGCAAC
B17: Cen-CTCF motif C12 + opposite C2 5mC (dsDNA)
DNA 1: AGGCCGCCAGAGAGCGCCC
DNA 2: GGGCGCTCTCTGGCGGCCT
modifications: 5mC motif C12 and opposite C2
B18: Cen-CTCF opposite C2 5mC (dsDNA)
DNA 1: AGGCCGCCAGAGAGCGCCC
DNA 2: GGGCGCTCTCTGGCGGCCT
modifications: 5mC opposite strand C2
B19: Cen-CTCF motif strand 5hmC (dsDNA)
DNA 1: AGGCCGCCAGAGAGCGCCC
DNA 2: GGGCGCTCTCTGGCGGCCT
modifications: 5hmC motif strand
B20: Cen-CTCF full 5hmC (dsDNA)
DNA 1: AGGCCGCCAGAGAGCGCCC
DNA 2: GGGCGCTCTCTGGCGGCCT
modifications: 5hmC at CpGs, both strands
B21: H19 motif strand 5hmC (dsDNA)
DNA 1: GTTGCCGCGTGGTGGCAG
DNA 2: CTGCCACCACGCGGCAAC
modifications: 5hmC motif strand C2
B22: H19 full 5hmC (dsDNA)
DNA 1: GTTGCCGCGTGGTGGCAG
DNA 2: CTGCCACCACGCGGCAAC
modifications: 5hmC C2 both strands

Target: T1, CTCF ZF1-11
Assay: fluorescence polarization; 20 mM Tris-HCl pH 7.5, 300 mM NaCl, 5% glycerol, 0.5 mM TCEP, 25 C, 15 min, 5 nM FAM-oligo
Conditions: protein: recombinant; tags: 6xHis-SUMO, used tagged and untagged (no change in results); label: FAM

| Binder | Kd [nM] |
| --- | --- |
| B1 | ~1000 |

Same assay, conditions: protein: recombinant; tags: 6xHis-SUMO, used tagged and untagged (no change in results); label: FAM on motif strand

| Binder | Kd |
| --- | --- |
| B2 | 303 ± 28 nM |
| B3 | 839 ± 74 nM |
| B4 | 949 ± 165 nM |
| B5 | 1030 ± 114 nM |
| B6 | 89 nM |
| B7 | 77 ± 5 nM |
| B8 | 37 ± 2 nM |
| B9 | ~5 nM |
| B10 | 346 nM |
| B11 | 799 ± 110 nM |
| B12 | 1080 ± 217 nM |
| B13 | 163 nM and ~200 nM |
| B14 | 428 ± 37 nM |
| B15 | 294 nM |
| B16 | 149 nM and ~200 nM |
| B17 | 243 ± 18 nM |
| B18 | 81 ± 5 nM |

Target: T2, CTCF FL
Assay: as above
Conditions: protein: recombinant; tags: 6xHis-SUMO, used tagged or removed (untagged for FL); label: FAM on motif strand

| Binder | Kd [nM] |
| --- | --- |
| B9 | ~5 |
| B13 | ~200 |
| B16 | ~200 |

Target: T1, CTCF ZF1-11
Assay: as above
Conditions: protein: recombinant; tags: 6xHis-SUMO, used tagged and untagged (no change in results); label: FAM on motif strand

| Binder | binding signal [fold lower affinity vs N2] |
| --- | --- |
| B19 | ~4 |
| B20 | ~4 |

Target: T1, CTCF ZF1-11
Assay: as above
Conditions: protein: recombinant; tags: 6xHis-SUMO, used tagged and untagged (no change in results); label: FAM on motif strand
Remark: another data set of the same source

| Binder | binding signal [fold lower affinity vs N3] |
| --- | --- |
| B21 | ~2 |
| B22 | ~2 |
